# Source: patent publication US20230002494A1 (SANYOU BIOPHARMACEUTICALS, published 2023)
# Positions count from the first letter of the chain named.
# B1: NB22D-21-huVH2 (Fc fusion, not shown: a dimerising Fc or GST)
# chain: EVQLVESGGGLVQPGGSLRLSCAASRTDSNINGMHWYRQAPGKGREWVGTIFIDGNTIVTDSVKGRFTISRDNAKNTLYLQMNTLRAEDTAVYYCAADVSGYGRAWGQGTTVTVSS
# notes: Humanized form of NB22D-21; also called humanized antibody NB22D-21-huVH2; D21-Vh2
# B2: NB22D-21-4 VHH-Fc chimeric antibody protein (Fc fusion)
# chain: B1 chain with S29R, G33T, G55L
# notes: not shown: human IgG1 Fc fragment, its N-terminus linked to the C-terminus of the VHH
# B3: NB22D-21-24 VHH-Fc chimeric antibody protein (Fc fusion)
# chain: B1 chain with D28F, N32F, D54T
# notes: as for B2
# B4: NB22D-21-17 VHH-Fc chimeric antibody protein (Fc fusion)
# chain: B1 chain with D28G, N32Y, G55W
# notes: as for B2
# B5: NB22D-21-8 VHH-Fc chimeric antibody protein (Fc fusion)
# chain: B1 chain with D28Y, N32Y, D54G, G55S
# notes: as for B2
# B6: control antibody KN035 (antibody, V domains shown)
# VH: QVQLVESGGGLVQPGGSLRLSCAASGFTFSRRCKAWFRQAPGKERERVAKILTTSGSTYLADSVKGRFTISRDNSKNTVYLQMNSLRAEDTAVYYCAADSFEDPTCTLVTSSGAFQYWGQGTLVTVSS
# notes: also called KN035 (control); positive control KN035
# B7: NB22D-21-94 (Fc fusion)
# chain: B1 chain with D28A, S29G, N32H, T50S, D54T, S100R
# notes: not shown: 'full-length antibodies' were constructed
# B8: NB22D-21-109 (Fc fusion)
# chain: B1 chain with D28A, S29G, N30Y, N32H, T50M, I53G, D54W, S100R
# notes: as for B7
# B9: NB22D-21-45-106 (Fc fusion)
# chain: B1 chain with T27R, D28W, N32H, T50S, I51R, D54T, S100R
# notes: as for B7
# B10: NB22D-21-123 (Fc fusion)
# chain: B1 chain with R26P, D28A, N32H, T50M, D54T, N56L
# notes: as for B7
# B11: NB22D-21-154 (Fc fusion)
# chain: B1 chain with D28A, I31A, N32M, T50M, I53R, S100R
# notes: as for B7
# B12: 47 (VHH)
# VHH: B1 chain with D28L, N32R, G55L
# notes: also called SY01-D21-47
# B13: SY01-D21-24 (VHH lysate) (VHH)
# VHH: B1 chain with D28F, N32F, D54T
# B14: SY01-D21-8 (VHH lysate) (VHH)
# VHH: B1 chain with D28Y, N32Y, D54G, G55S
# B15: NB22D-21-huVH1 (Fc fusion, not shown: a dimerising Fc or GST)
# chain: B1 chain with A24H
# notes: Humanized form of NB22D-21; also called humanized antibody NB22D-21-huVH1
# B16: SY01-NB-027-M (VHH lysate) (VHH)
# VHH: B1 chain with A24H, G33S, I51W, V99E, S100W, G101M
# notes: Tested as VHH lysate of a monoclone from the phage display vector
# B17: SY01-201 (VHH lysate) (VHH)
# VHH: B1 chain with A24H, N32H, G55L
# notes: as for B16
# B18: SY01-208 (VHH lysate) (VHH)
# VHH: B1 chain with A24H, N32F, G55A
# notes: as for B16
# Target: T1, human PD-L1 (full-length, on cells) (human, UniProt Q9NZQ7 19-290)
# T1 construct: whole, on cells; Expressed on CHO-s cells; also called human PD-L1-CHO; PD-L1-CHO
# T1 sequence (Q9NZQ7 19-290): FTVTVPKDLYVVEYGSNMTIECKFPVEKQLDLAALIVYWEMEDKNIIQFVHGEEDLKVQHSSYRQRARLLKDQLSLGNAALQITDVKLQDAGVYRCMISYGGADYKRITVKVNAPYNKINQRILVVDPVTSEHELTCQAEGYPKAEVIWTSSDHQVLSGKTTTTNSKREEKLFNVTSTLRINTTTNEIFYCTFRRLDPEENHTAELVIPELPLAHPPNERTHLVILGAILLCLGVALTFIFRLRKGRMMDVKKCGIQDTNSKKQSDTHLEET
# Assay: FACS, human PD-L1-CHO cells
# Excerpt: (§1) In order to evaluate 4 derisked VHH-Fc candidate antibodies, an FACS method is used to detect the binding activities thereof to cell expressed human PD-L1 and monkey PD-L1 proteins.
row,Binder,EC50
1,B1,0.72 µg/mL
2,B2,0.21 µg/mL
3,B3,0.14 µg/mL
4,B4,1.73 µg/mL
5,B5,0.26 µg/mL

# Target: T1, human PD-L1 (full-length, on cells)
# Assay: FACS on huPD-L1-CHOK cells
row,Binder,EC50 (read off the curve)
1,B6,~0.2 µg/mL
2,B7,~0.2 µg/mL
3,B8,~0.2 µg/mL
4,B9,~0.2 µg/mL
5,B2,~0.2 µg/mL
6,B10,~0.2 µg/mL
7,B11,~0.2 µg/mL

# Target: T1, human PD-L1 (full-length, on cells)
# Assay: FACS blocking on PD-L1-CHO cells, lysate samples; the blocked ligand is not named on the sheet or in Example 17
row,Binder,IC50 (read off the curve)
1,B12,~0.3 µg/mL
2,B13,~0.5 µg/mL
3,B14,~0.3 µg/mL

# Target: T1, human PD-L1 (full-length, on cells)
# Assay: FACS on human PD-L1-CHO cells, PE anti-human IgG Fc
# Excerpt: 1) collecting the cultured human PD-L1-CHO cells, centrifuging the collected cells at 300 g to remove the supernatant, resuspending the cells in a formulated FACS buffer and counting the cells, and adjusting the density of the cell suspension to 2×10⁶ cells/mL;
row,Binder,EC50 (read off the curve)
1,B6,~0.1 µg/mL
2,B1,~0.1 µg/mL
3,B15,~0.1 µg/mL

# Target: T2, rhesus monkey PD-L1 (full-length, on CHO-s cells) (rhesus monkey, UniProt F6VEW6 19-290)
# T2 construct: whole, on cells; also called monkey PD-L1-CHO
# Assay: FACS, monkey PD-L1-CHO cells
# Excerpt: as §1
row,Binder,EC50
1,B1,1.82 µg/mL
2,B2,0.3 µg/mL
3,B3,0.39 µg/mL
4,B4,3.25 µg/mL
5,B5,0.7 µg/mL

# Target: T1, human PD-L1 (full-length, on cells)
# Assay: FACS competition, human PD-L1-CHO cells, competitor biotin-labeled PD-1-Fc 1 µg/mL
row,Binder,IC50
1,B6,0.39 µg/mL

# Target: T1, human PD-L1 (full-length, on cells)
# Assay: as above
# Remark: another data set of the same source
row,Binder,IC50
1,B1,1 µg/mL
2,B2,0.3 µg/mL
3,B3,0.2 µg/mL

# Target: T1, human PD-L1 (full-length, on cells)
# Assay: FACS on PD-L1-CHO cells, anti-Llama IgG FITC
row,Binder,binding result
1,B16,binds
2,B17,binds
3,B18,binds

# Target: T1, human PD-L1 (full-length, on cells)
# Assay: FACS competition, human PD-L1-CHO cells, competitor biotin-labeled CD80 1 µg/mL
row,Binder,IC50
1,B6,0.631 µg/mL

# Target: T3, mouse PD-L1 (full-length, on CHO-s cells) (mouse, UniProt Q9EP73 19-290)
# T3 construct: whole, on cells; also called mouse PD-L1-CHO
# T3 sequence (Q9EP73 19-290): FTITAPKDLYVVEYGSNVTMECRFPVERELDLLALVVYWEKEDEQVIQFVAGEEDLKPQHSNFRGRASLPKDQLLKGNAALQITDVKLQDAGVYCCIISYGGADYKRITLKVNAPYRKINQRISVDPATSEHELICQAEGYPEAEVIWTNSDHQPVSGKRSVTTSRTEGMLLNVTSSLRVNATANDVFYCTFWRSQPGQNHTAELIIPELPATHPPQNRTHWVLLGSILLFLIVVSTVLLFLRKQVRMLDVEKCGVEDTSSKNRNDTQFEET
# Assay: FACS on mouse PD-L1-CHOK cells
Binder,EC50 (read off the curve),binding result
B8,~1 µg/mL,
B9,,binds
B2,,no binding (tested: 20 µg/mL)
B10,,binds
B11,,binds

# Target: T2, rhesus monkey PD-L1 (full-length, on …)
# Assay: FACS, monkey PD-L1-CHO cells
# Remark: another data set of the same source
# Excerpt: In order to evaluate the cross-reactivity of the VHH-Fc candidate antibodies to monkey PD-L1 and mouse PD-L1, an FACS method is used to detect the binding activity thereof to the mouse and rhesus monkey PD-L1 protein on cells.
row,Binder,EC50
1,B6,0.21 µg/mL

# Target: T1, human PD-L1 (full-length, on cells)
# Assay: FACS, human PD-L1-CHO cells
# Remark: another data set of the same source
row,Binder,EC50
1,B6,0.39 µg/mL

# Target: T1, human PD-L1 (full-length, on cells)
# Assay: FACS blocking on huPDL1-CHO cells; blocked ligand PD-1-Biotin 1 µg/mL; MFI = bound PD-1
row,Binder,IC50 (read off the curve)
1,B6,~0.2 µg/mL
2,B7,~0.2 µg/mL
3,B8,~0.2 µg/mL
4,B9,~0.2 µg/mL
5,B2,~0.2 µg/mL
6,B10,~0.2 µg/mL
7,B11,~0.2 µg/mL
